{"source": "patent US20050153395A1", "about": "“Unique integrin binding site in connective tissue growth factor (CTGF)” (CHILDREN'S HOSPITAL INC., priority 2003, published 2005)", "key": {"PSCs [1]": {"system": "PSCs", "assay": "PSC chemotaxis (migration) assay in culture insert", "type": "cell-based, rat", "details": "substance in lower chamber", "protocol": "To examine whether CTGF plays a role in PSC migration, a chemotaxis assay was carried out in which the migratory behavior of PSCs in the upper chamber of a culture insert was assessed following addition of CTGF to the lower chamber. […] PSC migration was also promoted by FN, PDGF or TGF-β1."}, "integrin α5β1": {"target": "integrin α5β1 (Homo sapiens, UniProt P05556+P08648)", "sequence (P08648 42-894 limits assumed)": "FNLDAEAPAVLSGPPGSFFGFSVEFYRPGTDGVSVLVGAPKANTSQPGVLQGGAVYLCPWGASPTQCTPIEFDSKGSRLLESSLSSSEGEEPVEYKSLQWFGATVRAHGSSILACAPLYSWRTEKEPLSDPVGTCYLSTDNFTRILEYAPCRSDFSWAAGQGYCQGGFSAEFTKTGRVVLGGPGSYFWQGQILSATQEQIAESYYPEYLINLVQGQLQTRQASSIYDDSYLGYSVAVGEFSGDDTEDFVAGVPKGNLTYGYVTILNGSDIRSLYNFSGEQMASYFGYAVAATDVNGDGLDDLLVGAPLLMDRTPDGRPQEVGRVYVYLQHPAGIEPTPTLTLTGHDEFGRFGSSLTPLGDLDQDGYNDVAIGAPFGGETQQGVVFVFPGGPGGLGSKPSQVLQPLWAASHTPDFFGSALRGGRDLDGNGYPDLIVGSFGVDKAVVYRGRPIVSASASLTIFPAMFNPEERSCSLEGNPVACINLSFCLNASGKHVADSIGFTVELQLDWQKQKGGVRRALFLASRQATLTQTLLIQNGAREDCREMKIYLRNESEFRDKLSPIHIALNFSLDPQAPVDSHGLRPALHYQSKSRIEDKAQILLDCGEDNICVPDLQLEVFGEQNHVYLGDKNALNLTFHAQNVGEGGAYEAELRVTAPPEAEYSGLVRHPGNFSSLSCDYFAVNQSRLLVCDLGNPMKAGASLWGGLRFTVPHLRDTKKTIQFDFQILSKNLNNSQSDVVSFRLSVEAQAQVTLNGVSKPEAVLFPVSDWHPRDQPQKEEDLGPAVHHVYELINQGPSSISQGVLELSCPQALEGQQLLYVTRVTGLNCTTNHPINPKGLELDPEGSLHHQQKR", "sequence (P08648 895-1049 partner limits assumed)": "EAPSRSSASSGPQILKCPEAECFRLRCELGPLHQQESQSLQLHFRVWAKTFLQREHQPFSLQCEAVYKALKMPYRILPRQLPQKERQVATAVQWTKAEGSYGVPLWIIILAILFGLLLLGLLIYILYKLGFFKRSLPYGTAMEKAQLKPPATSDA", "sequence (P05556 21-798)": "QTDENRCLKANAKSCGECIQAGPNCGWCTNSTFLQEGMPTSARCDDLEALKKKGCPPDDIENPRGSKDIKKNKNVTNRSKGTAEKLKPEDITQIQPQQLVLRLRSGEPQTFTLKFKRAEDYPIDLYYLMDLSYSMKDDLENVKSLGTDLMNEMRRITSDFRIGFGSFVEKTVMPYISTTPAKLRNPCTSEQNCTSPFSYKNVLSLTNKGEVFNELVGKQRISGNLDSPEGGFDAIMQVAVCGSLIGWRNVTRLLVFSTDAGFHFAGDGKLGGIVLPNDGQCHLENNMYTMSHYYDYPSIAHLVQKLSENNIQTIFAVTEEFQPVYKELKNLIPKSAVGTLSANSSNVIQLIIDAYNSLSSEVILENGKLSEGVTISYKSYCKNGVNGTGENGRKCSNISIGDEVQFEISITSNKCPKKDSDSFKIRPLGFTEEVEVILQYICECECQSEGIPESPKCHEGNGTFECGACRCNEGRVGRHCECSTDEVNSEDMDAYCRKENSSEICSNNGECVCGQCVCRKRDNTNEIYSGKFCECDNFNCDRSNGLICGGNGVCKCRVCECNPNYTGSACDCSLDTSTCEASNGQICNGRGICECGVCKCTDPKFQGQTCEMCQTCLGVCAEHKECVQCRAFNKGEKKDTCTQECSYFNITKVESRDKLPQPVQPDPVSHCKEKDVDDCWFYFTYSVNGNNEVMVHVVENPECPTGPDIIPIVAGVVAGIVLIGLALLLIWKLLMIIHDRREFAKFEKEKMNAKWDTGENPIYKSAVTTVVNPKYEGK", "assay": "Solid phase ELISA of integrin α5β1 binding", "details": "for binding to integrin α5β1: coated at 2 μg/ml, 1 μg/ml integrin", "protocol": "In a second approach, a solid phase binding assay was used in which CTGF1-4 or FN were individually coated onto microtiter wells that were subsequently incubated with purified integrin α5β1. The presence of immobilized integrin α5β1 was detected by ELISA using an anti-integrin α5β1 antibody similar to the methods described in Example 3 above. In addition, CTGF1-4 bound to integrin α5β1 in a dose-dependent manner, with maximal binding at 2 μg/ml CTGF. This level of CTGF1-4 (2 μg/ml) binding was the same as that elicited by 2 μg/ml FN, a well known ligand of integrin α5β1. In a similar experiment, 2 μg/ml of CTGF1-4;CTGF3-4 or CTGF4 were individually precoated onto microtiter wells. Using the solid-phase assay, integrin α5β1 bound to CTGF1-4, CTGF3-4 or CTGF4 See FIG. 5 (Panel B).\nTo directly analyze whether α5β1 integrin binds to CTGF4, microtiter wells coated with CTGF4 (2 μg/ml) or FN (4 μg/ml) were used in an ELISA assay to detect integrin binding, as described in Example 3. For these assays, 1 μg/ml integrin α5β1, alone or in the presence of 35 μM of P2peptide (CTGF[257-272]) and 35 μM of P5 peptide (CTGF [285-291]), were added to the precoated plates. […] The binding between CTGF4 and integrin α5 β1 was blocked by peptide P5 (CTGF [285-291]) or peptide P2 (CTGF[257-272]). […]"}, "[2]": {"system": "pancreatic stellate cells (PSC)", "assay": "PSC adhesion assay on coated wells", "type": "cell-based, rat", "details": "coated at 2 μg/ml", "from_the_text": "Rat PSCs were isolated by a modification of the method described by Phillips et al., Gut; 52:677-82, 2003. Briefly, pancreatic tissue was digested in situ with 0.03% collagenase P (Roche, Indianapolis, Ind.) in HBSS by perfusion through the thoracic aorta. This protocol was approved by the Institutional Animal Care and Use Committee of Children's Research Institute, Columbus, Ohio. The tissue was pooled, minced with scissors, and then digested with 0.05% collagenase P, 0.02% protease XIV (Sigma, St. Louis), and DNase I (Roche, Indianapolis, Ind.) in HBSS. The resulting cell suspension was centrifuged in a 12% Optiprep gradient at 1400 g for 14 minutes. Stellate cells separated into a hazy band just above the interface of a the gradient and the aqueous buffer. This band was harvested, and the cells washed and resuspended in DMEM supplemented with 25 mM Hepes buffer, 10% FBS, and 100 U/ml penicillin in, 100 μg/ml streptomycin. The, cells were maintained at 37° C. in a humidified atmosphere of 5% CO2/95% air.\nThe ability of activated PSC to adhere to non-tissue culture plastic microtiter wells coated with recombinant CTGF1-4, CTGF3-4 or CTGF4 was investigated. The solid phase binding assay was carried out as described in Example 2. […] To assess the possibility that CTGF-mediated PSC adhesion involved cell surface integrins, the effect of divalent cations on cell adhesion was examined, as described in Example 2. […]\nBecause CTGF is a heparin-binding protein, this property was further investigated.\nTo identify the peptides that bind to PSCs, cell adhesion assays were carried out as described in Example 3.\nTo further investigate the peptide binding, P2 or P5 (10 μM) or vehicle buffer alone (no add) were added to PSC cell suspensions for 30 minutes at room temperature."}, "[3]": {"system": "hepatic stellate cells (HSC)", "assay": "HSC adhesion assay on coated wells (CyQUANT fluorescence)", "type": "cell-based, rat", "protocol": "CTGF4 is known to be expressed in hepatic stellate cells (HSC) and to induce proliferation and extracellular matrix (ECM) production in these cells. (Williams et al., J Hepatol 32, 754-761, 2000; Paradis et al., Lab Invest 82, 767-774, 2002). The following experiments were carried out to determine if HSCs adhere to CTGF. HSCs were isolated from normal Sprague-Dowley rate by sequential perfusion with pronase/collagenase and purified by density gradient separation as described in Vyas et al. (Gastroenterology 109: 889-898, 1995).\nThe cells were subsequently detached using 1 mM EDTA PBS (137 mM NaCl, 2.7 mM KCl, 4.3 mM Na2HPO4, 1.4 mM KH2PO4, pH 7.3), washed twice in DMEM and resuspended in serum free medium containing 0.5% BSA. The cells-were plated (1.25×10^4 cells/well) in a 96 well plate coated with one of the following: 2 μg/ml CTGF isoform (CTGF1-4, CTGF3-4, CTGF4), 1 μg/ml laminin, or 4 μg/ml vitronectin and incubated for 20 minutes at 37° C. Subsequently the cells were washed with PBS and the adherent cells were fixed with 10% formalin and stained with CyQUANT GR dye/cell lysis buffer (Molecular Probes , Eugene, Oreg.) according to the manufacturer's instructions. The number of cells that adhered to CTGF isoforms or ECM protein was quantified by measuring the sample fluorescence intensity at Ex/Em: 480/520 nm using a micro-plate reader (CytoFluor™ 2350).\nTo determine if the CTGF-mediated HSC adhesion was carried out through integrin receptors, the experiment described above were carried out in the presence and absence of 10 mM EDTA. […] It is widely believed that Mn^2+ induces conformational shifts that mimic the physiological activation of β1 and β3 integrins (Roberts et al., J Biol Chem 278: 1975-1985, 2003, van der Pauw et al., J Periodontal Res 37: 317-323, 2002) as Mn^2+-induced activation leads to enhanced ligand-binding affinity and cell adhesion (Mould et al., J Biol Chem 277: 19800-19805, 2002, Loftus & Liddington J Clin Invest 100: S77-81, 1997, Lin et al., J Biol Chem 272: 14236-14243, […]). […]"}, "collagen I mRNA": {"system": "collagen I mRNA", "assay": "Collagen I mRNA expression in PSCs", "type": "cell-based, rat"}, "PSCs [4]": {"system": "PSCs", "assay": "PSC DNA synthesis, [3H]thymidine incorporation", "type": "cell-based, rat", "details": "24 hours; CTGF1-4 effect in 0.1% serum, not in serum-free medium", "protocol": "To measure the effect of CTGF on cell proliferation, DNA synthesis was measured by ^3H incorporation in PSCs. The cells were incubated for 24 hours with 0.2 μCi [^3H] thymidine in each well (24-well plate). The incorporation of [^3H] thymidine into PSC DNA was determined using a scintillation counter after the cells had been washed with PBS, fixed with 10% methanol, treated with cold 5% trichloroacetic acid, and lysed in 0.3 N NaOH."}}, "data": [{"molecule": "CTGF3-4: C-terminal CTGF fragment comprising modules 3 and 4 (protein) AYRLEDTFGPDPTMIRANCLVQTTEWSACSKTCGMGISTRVTNDNASCRLEKQSRLCMVRPCEADLEENIKKGKKCIRTPKISKPIKFELSGCTSMKTYRAKFCGVCTDGRCCTPHRTTTLPVEFKCPDGEVMKKNMMFIKTCACHYNCPGDNDIFESLYYRKMYGDMA", "values": [{"measurement": "PSC migration", "setting": "PSCs [1]", "value": "induced PSC migration"}, {"measurement": "binding to integrin α5β1", "setting": "integrin α5β1", "value": "bound"}, {"measurement": "PSC adhesion supported by the coated substance", "setting": "[2]", "value": "significantly promoted"}]}, {"molecule": "Heparinase I: enzyme that acts on highly sulfated heparan sulfate proteoglycans (protein, UniProt Q05819 22-384, looked up) Heparin lyase I: QQKKSGNIPYRVNVQADSAKQKAIIDNKWVAVGINKPYALQYDDKLRFNGKPSYRFELKAEDNSLEGYAAGETKGRTELSYSYATTNDFKKFPPSVYQNAQKLKTVYHYGKGICEQGSSRSYTFSVYIPSSFPDNATTIFAQWHGAPSRTLVATPEGEIKTLSIEEFLALYDRMIFKKNIAHDKVEKKDKDGKITYVAGKPNGWKVEQGGYPTLAFGFSKGYFYIKANSDRQWLTDKADRNNANPENSEVMKPYSSEYKTSTIAYKMPFAQFPKDCWITFDVAIDWTKYGKEANTILKPGKLDVMMTYTKNKKPQKAHIVNQQEILIGRNDDDGYYFKFGIYRVGNSTVPVTYNLSGYSETAR", "values": [{"measurement": "inhibition of HSC adherence to CTGF[257-272]", "setting": "[3]; peptide-coated wells, heparin 2 μg/ml", "value": "abrogated"}, {"measurement": "inhibition of CTGF4-mediated HSC adhesion", "setting": "[3]; wells coated 2 μg/ml CTGF4, EDTA 10 mM, GRGDsp 1 mM, Echistatin 2 μM, antibody/IgG 25 μg/ml, heparin 2 μg/ml", "value": "unable to adhere"}, {"measurement": "inhibition of vitronectin-mediated HSC adhesion", "setting": "[3]; wells coated 4 μg/ml vitronectin", "value": "adhered to vitronectin"}]}, {"molecule": "CTGF1-4: full length CTGF protein, 38 kDa (protein) QNCSGPCRCPDEPAPRCPAGVSLVLDGCGCCRVCAKQLGELCTERDPCDPHKGLFCDFGSPANRKIGVCTAKDGAPCIFGGTVYRSGESFQSSCKYQCTCLDGAVGCMPLCSMDVRLPSPDCPFPRRVKLPGKCCEEWVCDEPKDQTVVGPALAAYRLEDTFGPDPTMIRANCLVQTTEWSACSKTCGMGISTRVTNDNASCRLEKQSRLCMVRPCEADLEENIKKGKKCIRTPKISKPIKFELSGCTSMKTYRAKFCGVCTDGRCCTPHRTTTLPVEFKCPDGEVMKKNMMFIKTCACHYNCPGDNDIFESLYYRKMYGDMA", "values": [{"measurement": "collagen I mRNA expression in PSCs", "setting": "collagen I mRNA", "value": "significantly increased"}, {"measurement": "PSC migration", "setting": "PSCs [1]", "value": "induced PSC migration"}, {"measurement": "PSC proliferation (DNA synthesis)", "setting": "PSCs [4]", "value": "significantly enhanced"}, {"measurement": "binding to integrin α5β1", "setting": "integrin α5β1", "value": "bound"}, {"measurement": "binding to integrin α5β1, maximal binding at", "setting": "integrin α5β1; coated protein", "value": 2, "unit": "µg/mL"}, {"measurement": "PSC adhesion supported by the coated substance", "setting": "[2]", "value": "significantly promoted"}]}]}
